The target of this assay is T1, WT SARS-CoV-2 RBD protein (SARS-CoV-2, Wuhan-Hu-1 (WT), UniProt P0DTC2).
T1 construct: also called WT RBD
The assay is described as follows: ELISA. The following applies: both partners purified. Background: In an ELISA, binding on a coated surface is turned into a signal by an enzyme label.

B1: neutralizing MAb 3C1 (antibody, V domains shown)
VH: EVQLQESGPSLVKPSQTLSLTCSVTGDSITNGYWNWIRKFPGNKLEYMGYISYSGSTYYSPSLKSRISITRDTSKNQHYLQLNSVTSEDTATYYCASDYHGSKYYFDYWGQGTTLTVSS
VL: DIVMTQSHKFMSTSVGHRVSITCKASQDVGNDVAWYQQKPGQSPKLLIYWASTRHTGVPDRFTGSGSGTDFTLTISNVQSEDLADYFCQQYNRYPYTFGGGTKLEIK
As for B1, the binding result is on record as “binds”.

B2: neutralizing MAb 2H2 (antibody, V domains shown)
VH: QVQLKQSGPSLVQPSQSLSITCTVSGFSLTSYGVHWVRQSPGKGLEWLGVMWRGGNTDYNAAFMSRLSITKDNSKSQVFFKMNSLQTDDTAIYYCAKNGGAHAMDFWGQGTSVTVSS
VL: NIVLTQSPASLAVSLGQRATISCRASESVDSYGNSFLHWYQQKPGQPPKLLIYLASNLESGVPARFSGSGSRTDFTLTIDPVEADDAATYYCQQNNEDPFTFGSGTKLEIK
For B2, the binding result is given as “binds”.

For the origin of these results see paper PMC8688474 (Nature Communications, 2021).
